Measured values: article PMC7921410, “Structure of mammalian Mediator complex reveals Tail module architecture and interaction with a conserved core” (Nature Communications, 2021)

B1: MED4 (natural protein, mouse (Mus musculus; endogenous in CH12), UniProt Q9CQA5 1-270, looked up)
chain: MAASSSGEKEKERMGGVSGMAGLGSTRERLLSALEDLEVLSRELIEMLAISRNQKLLQLEEENQVLELLIHRDGDFQELMKLALNQGKVHHEMQALEKEVEKRDSDIQQLQKQLKEAEQILATAVYQAKEKLKSIEKARKGAISSEEIIKYAHRISASNAVCAPLTWVPGDPRRPYPTDLEMRSGLLGQMNNPSTSGVNGHLPGDALAAGRLPDVLAPQYPWQSNDMSVNMLPPNHSSDFLLEPPGHNKENEDDVEVMSTDSSSSSSDSD
notes: MED4, Mus musculus, endogenous Middle module subunit of Mediator; source: endogenous, CH12 mouse B lymphoma nuclear extract; immunopurified as part of Mediator (FLAG M2 agarose, FLAG peptide elution)
B2: MED28 (natural protein, mouse (Mus musculus; endogenous in CH12), UniProt Q920D3 1-178, looked up)
chain: MAASLGGMFTGQPPGPPPPPPGLPGQASLLQAAPGAPRPSNSTLVDELESSFEACFASLVSQDYVNGTDQEEIRTGVDQCIQKFLDIARQTECFFLQKRLQLSVQKPDQVIKEDVSELRSELQRKDALVQKHLTKLRHWQQVLEDINVQHKKPADMPQGSLAFLEQASANIPAPLKQT
notes: MED28, Mus musculus, endogenous upper Tail subunit of Mediator; source: endogenous, CH12 mouse B lymphoma nuclear extract; immunopurified as part of Mediator (FLAG M2 agarose, FLAG peptide elution)
B3: MED24 (natural protein, mouse (Mus musculus; endogenous in CH12), UniProt Q99K74 1-987, looked up)
chain: MKVVNLKQAILQAWKERWSDYQWAINMKKFFPKGATWDILNLAEALLEQAMIGPSPNPLILSYLKYAISSQMVSCSSVLTAISKFDDFSRDLCVQALLDIMDMFCDRLSCHGKAEECIGLCRALLSALHWLLRCTAASAERLQEGLEAGTPAPGEKQLALCLQCLEKTLSSTKNRALLHIAKLEEASSWTAIEHSLLKLGEILANLSNPQLRSQAERCGTLIRSIPSMLSVHSEQLHKTGFPTIHALILLEGTMNLTGEMQPLVEQLMMVKRMQHIPTPLFVLEIWKACFVGLIESPEGTQELKWTAFTYLKIPQVLVKLKKYFHGEKDFTEDVNCAFEFLLKLTPLLDKADQRCNCDCTNFLLQECNKQGLLSEVNFASLVGKRTADRDPQLKSSENANIQPNPGLILRAEPTVTNILKTMDADHSKSPEGLLGVLGHMLSGKSLDLLLAAAAATGKLKSFARKFINLNEFTTHGSGESTKTASVRALLFDISFLMLCHVAQTYGSEVILSESSSGEEVPFFETWMQTCMPEEGKILNPDHPCFRPDSTKVESLVALLNNSSEMKLVQMKWHEACLSISAAILEILNAWENGVLAFESIQKITDNIKGKVCSLAVCAVAWLVAHVRMLGLDEREKSLQMIRQLAGPLYSENTLQFYNERVVIMNSILEHMCADVLQQTATQIKFPSTGVDTMPYWNLLPPKRPIKEVLTDIFAKVLEKGWVDSRSIHILDTLLHMGGVYWFCNNLIKELLKETRKEHTLRAVQLLYSIFCLDMQQVTLVLLGHILPGLLTDSSKWHSLMDPPGTALAKLAVWCALSSYSSHKGQASSRQKKRHREDIEDYVSLFPVEDMQPSKLMRLLSSSDDDANILSSPTDRSMNSSLSASQLHTVNMRDPLNRVLANLFLLISSILGSRTAGPHTQFVQWFMEECVGCLEQDSRGSILQFMPFTTVSELVKVSAMSSPKVVLAITDLSLPLGRQVAAKAIAAL
notes: MED24, Mus musculus, endogenous lower Tail subunit of Mediator; source: endogenous, CH12 mouse B lymphoma nuclear extract; immunopurified as part of Mediator (FLAG M2 agarose, FLAG peptide elution)
B4: MED11 (natural protein, mouse (Mus musculus; endogenous in CH12), UniProt Q9D8C6 1-117, looked up)
chain: MATYSLANERLRALEDIEREIGAILQNAGTAILELSKEKTNERLLDRQAAAFTTSVQHVEAELSAQIRYLTQVATGQPHEGSSYSSRKDCQMALKRVDYARLKISDVARTCEQMLEN
notes: MED11, Mus musculus, endogenous Head module subunit of Mediator; source: endogenous, CH12 mouse B lymphoma nuclear extract; immunopurified as part of Mediator (FLAG M2 agarose, FLAG peptide elution)
B5: MED30 (natural protein, mouse (Mus musculus; endogenous in CH12), UniProt Q9CQI9 1-178, looked up)
chain: MSTPPLAPTGMASGPFGGPQAQQAAREVNTATLCRIGQETVQDIVYRTMEIFQLLRNMQLPNGVTYHTGTYQDRLTKLQDHLRQLSILFRKLRLVYDKCNENCGGMDPIPVEQLIPYVDEDGSKNDDRAGPPRFASEERREIVEVNKKLKQKNQQLKQIMDQLRNLIWDINAMLAMRN
notes: MED30, Mus musculus, endogenous upper Tail subunit of Mediator; source: endogenous, CH12 mouse B lymphoma nuclear extract; immunopurified as part of Mediator (FLAG M2 agarose, FLAG peptide elution)

Tests used:
Test in all cases: cryo-EM structure; endogenous mouse Mediator immunopurified from CH12 nuclear extract through 3×FLAG-MED19 or 3×FLAG-MED25; eluted in 50 mM HEPES pH 7.9, 100 mM KCl, 5% glycerol, 1 mM EDTA, 0.005% NP-40; map at 4.0 Å overall, focused refinement of the MED1 and knob/hook ends (6-10 Å)
Details in all cases: both partners purified
[1] = target: T1, MED1 (mouse (Mus musculus; endogenous in CH12), UniProt Q925J9 1-1575)
T1 construct: MED1, Mus musculus, endogenous Middle module subunit of Mediator; only a partial model of the folded N-terminal portion was built; Partial model only; this part of the map is at about 6-8 Å; also called Mediator subunit MED1; source: endogenous, CH12 mouse B lymphoma nuclear extract; immunopurified as part of Mediator (FLAG M2 agarose, FLAG peptide elution)
T1 sequence (Q925J9 whole entry): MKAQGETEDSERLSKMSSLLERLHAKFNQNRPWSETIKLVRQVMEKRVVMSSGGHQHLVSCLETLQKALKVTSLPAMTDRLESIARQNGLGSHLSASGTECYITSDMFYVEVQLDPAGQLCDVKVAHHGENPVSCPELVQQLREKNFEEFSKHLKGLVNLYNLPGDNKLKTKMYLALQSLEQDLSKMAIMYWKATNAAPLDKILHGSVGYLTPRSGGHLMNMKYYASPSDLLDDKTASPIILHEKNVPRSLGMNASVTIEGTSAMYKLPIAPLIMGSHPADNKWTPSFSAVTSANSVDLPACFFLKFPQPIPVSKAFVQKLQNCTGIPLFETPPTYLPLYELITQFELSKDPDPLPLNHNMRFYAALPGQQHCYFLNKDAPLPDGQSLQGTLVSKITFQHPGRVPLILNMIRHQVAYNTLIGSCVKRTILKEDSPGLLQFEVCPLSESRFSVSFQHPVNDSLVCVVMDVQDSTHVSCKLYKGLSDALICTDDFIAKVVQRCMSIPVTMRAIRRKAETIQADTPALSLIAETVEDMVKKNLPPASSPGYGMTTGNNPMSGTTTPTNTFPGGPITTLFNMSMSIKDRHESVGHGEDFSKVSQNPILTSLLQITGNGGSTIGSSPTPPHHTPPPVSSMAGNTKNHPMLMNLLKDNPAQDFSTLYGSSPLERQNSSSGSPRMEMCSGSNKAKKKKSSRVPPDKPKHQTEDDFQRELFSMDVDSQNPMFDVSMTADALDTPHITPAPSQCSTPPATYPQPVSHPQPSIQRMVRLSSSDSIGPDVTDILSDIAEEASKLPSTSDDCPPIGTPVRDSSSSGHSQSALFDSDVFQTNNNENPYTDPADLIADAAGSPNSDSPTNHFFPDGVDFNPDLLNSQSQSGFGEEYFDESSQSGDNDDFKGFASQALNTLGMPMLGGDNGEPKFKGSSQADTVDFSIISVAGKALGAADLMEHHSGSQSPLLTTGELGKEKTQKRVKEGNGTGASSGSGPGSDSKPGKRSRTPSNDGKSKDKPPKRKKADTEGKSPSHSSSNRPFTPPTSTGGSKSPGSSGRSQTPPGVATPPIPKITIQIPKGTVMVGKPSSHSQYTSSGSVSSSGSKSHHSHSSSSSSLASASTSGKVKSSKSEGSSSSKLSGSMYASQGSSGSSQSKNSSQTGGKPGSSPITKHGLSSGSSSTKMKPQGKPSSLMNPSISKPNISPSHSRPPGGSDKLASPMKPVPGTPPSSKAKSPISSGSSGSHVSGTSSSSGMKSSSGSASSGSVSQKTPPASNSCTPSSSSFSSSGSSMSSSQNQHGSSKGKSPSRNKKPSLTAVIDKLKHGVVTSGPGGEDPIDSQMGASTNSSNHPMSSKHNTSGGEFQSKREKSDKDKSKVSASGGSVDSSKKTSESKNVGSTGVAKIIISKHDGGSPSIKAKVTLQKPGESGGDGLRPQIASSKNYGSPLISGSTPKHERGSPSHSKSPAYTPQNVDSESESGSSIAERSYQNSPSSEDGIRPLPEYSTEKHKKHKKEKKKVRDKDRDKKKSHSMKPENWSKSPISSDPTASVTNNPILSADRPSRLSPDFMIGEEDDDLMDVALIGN

[2] = target: B5
[3] = target: T2, MED27 (mouse (Mus musculus; endogenous in CH12), UniProt Q9DB40 1-311)
T2 construct: MED27, Mus musculus, endogenous upper Tail subunit of Mediator; source: endogenous, CH12 mouse B lymphoma nuclear extract; immunopurified as part of Mediator (FLAG M2 agarose, FLAG peptide elution)
T2 sequence (looked up): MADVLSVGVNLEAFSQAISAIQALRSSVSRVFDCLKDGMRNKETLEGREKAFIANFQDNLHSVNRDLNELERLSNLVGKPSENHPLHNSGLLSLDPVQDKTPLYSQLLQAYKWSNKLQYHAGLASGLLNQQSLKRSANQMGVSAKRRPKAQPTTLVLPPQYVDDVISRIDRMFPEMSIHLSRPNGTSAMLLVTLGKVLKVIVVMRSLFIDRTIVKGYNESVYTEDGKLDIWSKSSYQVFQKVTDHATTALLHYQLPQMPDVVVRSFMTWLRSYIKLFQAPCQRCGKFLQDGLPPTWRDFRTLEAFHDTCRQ

[4] = target: T3, MED29 (mouse (Mus musculus; endogenous in CH12), UniProt Q9DB91 1-199)
T3 construct: MED29, Mus musculus, endogenous upper Tail subunit of Mediator; source: endogenous, CH12 mouse B lymphoma nuclear extract; immunopurified as part of Mediator (FLAG M2 agarose, FLAG peptide elution)
T3 sequence (looked up): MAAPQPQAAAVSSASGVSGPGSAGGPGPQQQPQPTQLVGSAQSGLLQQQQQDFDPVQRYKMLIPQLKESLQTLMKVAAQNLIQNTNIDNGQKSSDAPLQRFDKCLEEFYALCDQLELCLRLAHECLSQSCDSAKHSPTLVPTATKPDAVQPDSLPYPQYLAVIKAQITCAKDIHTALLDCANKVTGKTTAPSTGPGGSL

[5] = target: T4, MED22 (mouse (Mus musculus; endogenous in CH12), UniProt Q62276 1-200)
T4 construct: MED22, Mus musculus, endogenous Head module subunit of Mediator; source: endogenous, CH12 mouse B lymphoma nuclear extract; immunopurified as part of Mediator (FLAG M2 agarose, FLAG peptide elution)
T4 sequence (looked up): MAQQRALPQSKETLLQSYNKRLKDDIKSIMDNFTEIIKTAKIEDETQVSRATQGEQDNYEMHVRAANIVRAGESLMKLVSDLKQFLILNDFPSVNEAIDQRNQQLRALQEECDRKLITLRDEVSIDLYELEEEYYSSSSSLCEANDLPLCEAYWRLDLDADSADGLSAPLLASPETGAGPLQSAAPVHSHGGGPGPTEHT

[6] = target: T5, MED17 (mouse (Mus musculus; endogenous in CH12), UniProt Q8VCD5 1-649)
T5 construct: MED17, Mus musculus, endogenous Head module scaffold subunit of Mediator; source: endogenous, CH12 mouse B lymphoma nuclear extract; immunopurified as part of Mediator (FLAG M2 agarose, FLAG peptide elution)
T5 sequence (looked up): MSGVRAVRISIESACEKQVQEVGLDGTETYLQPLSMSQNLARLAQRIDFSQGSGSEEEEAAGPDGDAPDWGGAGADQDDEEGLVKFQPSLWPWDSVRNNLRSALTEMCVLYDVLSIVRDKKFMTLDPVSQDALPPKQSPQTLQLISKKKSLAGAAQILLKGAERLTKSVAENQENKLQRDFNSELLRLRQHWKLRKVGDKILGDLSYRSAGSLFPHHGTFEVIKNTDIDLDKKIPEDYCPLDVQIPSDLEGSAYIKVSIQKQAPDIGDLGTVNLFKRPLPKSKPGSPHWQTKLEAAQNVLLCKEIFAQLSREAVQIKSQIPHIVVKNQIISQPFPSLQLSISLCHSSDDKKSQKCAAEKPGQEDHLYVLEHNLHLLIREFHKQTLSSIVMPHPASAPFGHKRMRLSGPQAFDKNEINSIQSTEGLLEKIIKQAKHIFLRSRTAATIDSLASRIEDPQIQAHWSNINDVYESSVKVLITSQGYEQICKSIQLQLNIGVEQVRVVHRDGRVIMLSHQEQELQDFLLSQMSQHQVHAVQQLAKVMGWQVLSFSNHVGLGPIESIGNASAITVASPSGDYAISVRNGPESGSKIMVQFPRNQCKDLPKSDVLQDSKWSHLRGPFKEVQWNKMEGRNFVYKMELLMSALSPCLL

[7] = target: B2

Measured: binding result

B1
binds: [1]

B2
not listed: [1] | [7]
binds: all other assays above

B3
binds: [1]

B4
binds: [7] | [2] | [5] | [6]

B5
binds: [3] | [4] | [5] | [6]
